In patent US20230051715A1 (MABWELL THERAPEUTICS, published 2023):
One block for each binder: values may come before it.

Assays:
[1] = target: T1, human C1s proenzyme (CompTech A103) (human, UniProt P09871 16-688); experiment: BLI (Octet RED96e), antibody on AHC biosensor; HuC1s Form: Proenzyme; R^2 0.9990
T1 construct: also called proenzyme human C1s (native C1s)
T1 sequence (looked up): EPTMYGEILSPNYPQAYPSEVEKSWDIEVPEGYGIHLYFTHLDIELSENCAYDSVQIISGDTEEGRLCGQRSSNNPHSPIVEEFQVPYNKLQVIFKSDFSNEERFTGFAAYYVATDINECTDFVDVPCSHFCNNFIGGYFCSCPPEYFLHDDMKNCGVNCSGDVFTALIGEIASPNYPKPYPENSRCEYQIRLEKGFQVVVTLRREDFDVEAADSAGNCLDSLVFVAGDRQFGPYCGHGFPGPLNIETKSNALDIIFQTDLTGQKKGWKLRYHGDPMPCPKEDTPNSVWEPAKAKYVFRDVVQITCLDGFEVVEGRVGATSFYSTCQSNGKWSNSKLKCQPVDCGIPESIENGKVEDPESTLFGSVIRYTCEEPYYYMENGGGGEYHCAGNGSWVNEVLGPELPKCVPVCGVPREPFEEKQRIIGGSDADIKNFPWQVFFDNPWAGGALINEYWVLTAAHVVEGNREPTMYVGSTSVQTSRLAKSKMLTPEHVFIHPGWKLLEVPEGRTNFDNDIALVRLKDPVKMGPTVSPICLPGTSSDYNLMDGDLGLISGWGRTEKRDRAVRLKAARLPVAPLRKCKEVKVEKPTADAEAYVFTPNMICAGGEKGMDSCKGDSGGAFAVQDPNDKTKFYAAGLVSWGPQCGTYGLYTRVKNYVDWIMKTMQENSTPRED
Protocol: (§1) Bio-Layer Interferometry technology was used for anti-C1s antibody affinity measurement and binding kinetics determinations with OCTET® RED96e system (Sartorius AG). Pre-hydrated Anti-Human IgG Fc Capture (AHC) biosensors were first equilibrated in 1×KB (Kinetic Buffer, 1×PBS pH 7.4+0.02% Tween-20+0.1% BSA) for 120 sec for the first baseline, followed by loading with […] anti-C1s antibody (2-7, FIG. 3A; 2-8, FIG. 3B; hz2-7(H1L2), FIG. 3C; hz2-8(H1L2 G80A/T82A, FIG. 3D) onto AHC biosensors for 240 sec. Then, the second baseline signal was established for 120 sec before association with various concentrations of active human C1s (CompTech A104) for 240-360 sec. At last, analyte was dissociated in 1×KB for 360 sec. Anti-C1s antibodies 2-7 and 2-8 were also analyzed against human C1s proenzyme (CompTech A103) (data not shown). Data analysis was carried out using OCTET® Data Analysis HT Software (Sartorius AG). KD, kₒₙ, koff and R² values were calculated for each antibody and target combination, as summarized in FIG. 3E showing high affinity binding with KD values in the low nanomolar to picomolar range.

[2] = target: T2, active human C1s (CompTech A104 C1s Enzyme) (human, UniProt P09871 16-688); experiment: BLI (Octet RED96e), antibody on AHC biosensor; HuC1s Form: Active; R^2 0.9990
T2 construct: also called human active C1s; active C1s protein
T2 sequence (looked up): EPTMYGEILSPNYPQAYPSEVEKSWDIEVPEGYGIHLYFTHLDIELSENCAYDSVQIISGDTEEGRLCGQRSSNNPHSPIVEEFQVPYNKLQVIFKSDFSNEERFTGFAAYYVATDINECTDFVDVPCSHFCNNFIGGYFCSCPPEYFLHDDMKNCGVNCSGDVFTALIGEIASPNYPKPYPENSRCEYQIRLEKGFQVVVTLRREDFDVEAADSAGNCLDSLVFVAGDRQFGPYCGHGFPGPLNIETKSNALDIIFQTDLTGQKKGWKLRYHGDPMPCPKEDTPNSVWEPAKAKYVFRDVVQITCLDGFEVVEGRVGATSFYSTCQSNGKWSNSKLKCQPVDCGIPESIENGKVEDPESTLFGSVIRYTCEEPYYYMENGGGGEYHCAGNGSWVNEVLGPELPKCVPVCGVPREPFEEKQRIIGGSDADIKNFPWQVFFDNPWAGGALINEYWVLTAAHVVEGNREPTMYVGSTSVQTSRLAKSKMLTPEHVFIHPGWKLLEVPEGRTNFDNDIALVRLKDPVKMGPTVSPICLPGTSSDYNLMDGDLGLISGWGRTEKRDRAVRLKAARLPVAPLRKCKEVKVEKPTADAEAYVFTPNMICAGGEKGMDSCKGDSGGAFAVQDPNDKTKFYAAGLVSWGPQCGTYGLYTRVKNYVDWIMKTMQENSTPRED
Protocol: as §1

[3] = target: T2, active human C1s (CompTech A104 C1s …); experiment: BLI (Octet RED96e), antibody on AHC biosensor; HuC1s Form: Active; R^2 0.9998
Protocol: as §1

[4] = target: T1, human C1s proenzyme (CompTech A103); experiment: BLI (Octet RED96e), antibody on AHC biosensor; HuC1s Form: Proenzyme; R^2 0.9994
Protocol: as §1

[5] = target: T3, cynomolgus monkey C1s (produced in house) (cynomolgus monkey, UniProt P09871 16-685 (human entry), limits assumed); experiment: BLI (Octet RED96e), antibody on AHC biosensor; C1s Species: Cyno Monkey; R^2 0.9999
T3 construct: also called CyC1s
T3 chain: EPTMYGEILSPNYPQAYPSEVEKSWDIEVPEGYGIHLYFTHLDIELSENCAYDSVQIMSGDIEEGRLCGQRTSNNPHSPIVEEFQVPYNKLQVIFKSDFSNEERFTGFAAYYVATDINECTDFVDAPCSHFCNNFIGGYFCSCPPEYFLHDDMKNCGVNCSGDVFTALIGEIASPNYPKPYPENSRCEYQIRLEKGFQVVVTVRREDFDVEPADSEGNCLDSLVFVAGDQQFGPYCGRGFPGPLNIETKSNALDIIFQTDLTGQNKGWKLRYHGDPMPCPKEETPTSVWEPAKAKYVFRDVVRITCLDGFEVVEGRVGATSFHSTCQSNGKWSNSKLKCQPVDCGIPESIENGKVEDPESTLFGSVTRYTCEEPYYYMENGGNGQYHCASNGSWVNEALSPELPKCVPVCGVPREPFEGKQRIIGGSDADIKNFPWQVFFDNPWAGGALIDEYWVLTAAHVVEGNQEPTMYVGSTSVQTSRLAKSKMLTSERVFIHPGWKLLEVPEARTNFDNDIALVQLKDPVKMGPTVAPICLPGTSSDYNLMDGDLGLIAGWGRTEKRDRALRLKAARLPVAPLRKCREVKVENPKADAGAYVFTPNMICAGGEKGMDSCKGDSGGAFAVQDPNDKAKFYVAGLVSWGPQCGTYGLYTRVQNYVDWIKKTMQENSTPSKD
Excerpt: At last, analyte was dissociated in 1×KB for 360 sec. Data analysis was done using OCTET® Data Analysis HT Software (Sartorius AG).

Kd [1]: 0.49 nM | koff [1]: 0.00012 s⁻¹ | kon [1]: 250000 M⁻¹ s⁻¹ | Kd [2]: 0.49 nM | koff [2]: 0.00012 s⁻¹ | kon [2]: 250000 M⁻¹ s⁻¹
B1: Anti-C1s antibody 2-8 (antibody, V domains shown)
VH: EVQLQQSGAELVRPGALVKLSCKASGFNIKEYYMHWVKQRPEQGLEWIGWIDPENGDTIYDPKFQGKASITADTSSNTAYLQLSSLTSEDTAVYYCARSRLFFAYWGQGTLVTVSA
VL: DIVMTQSHKFMSTSVGDRVSFTCKASQDVRTAVDWYQQKPGQSPKLLIYSASYRYTGVPDRFTGTGSGTDFTFTISSVQAEDLAVYFCQQQYTTPYTFGGGTKLEIKT
notes: the HC/LC entries may hold it too; also called clone 2-8

Kd [3]: 0.24 nM | koff [3]: 7e-05 s⁻¹ | kon [3]: 290000 M⁻¹ s⁻¹
B2: Anti-C1s antibody hz2-7(H1L2) (antibody, V domains shown)
VH: EVQLLESGGGLVQPGGSLRLSCAASGFTFSNYFMNWVRQAPGKGLEWVSEIRLKFTNYATHYADSVKGRFTISRDDSKSTLYLQMNSLRAEDTAVYYCTRDYGSRNGYFDYWGQGTLVTVSS
VL: DIVMTQTPLSLPVTPGEPASISCRSSKSLLHSNGNTFLYWFLQKPGQSPQLLIYRMSNLASGVPDRFSGSGSGTDFTLKISRVEAEDVGVYYCMQHLEYPYTFGGGTKLEIKR
notes: Humanized, human IgG1 / kappa; also called hz2-7(1L2)

Kd [3]: 1.2 nM | koff [3]: 0.00029 s⁻¹ | kon [3]: 240000 M⁻¹ s⁻¹
B3: Anti-C1s antibody hz2-8 (H1L2 G80A/T82A) (antibody, V domains shown)
VH: QVQLVQSGAEVKKPGASVKVSCKASGFNIKEYYMHWVRQAPEQGLEWMGWIDPENADAIYAQKFQGRVTITADTSTNTAYMELSSLRSEDTAVYYCARSRLFFAYWGQGTLVTVSS
VL: DIQMTQSPKSLSASVGDRVTITCRASQDVRTALDWYQQKPGQSPKLLIYSASYRYSGVPSRFSGSGSGTDFTLTISSLQPEDFATYYCQQQYTTPYTFGQGTKLEIKR
notes: Humanized variant with G80A and T82A in HC CDR2 (already in the entry), human IgG1 / kappa

Kd [4]: 0.14 nM | koff [4]: 4.8e-05 s⁻¹ | kon [4]: 350000 M⁻¹ s⁻¹ | Kd [5]: 0.23 nM | koff [5]: 6.5e-05 s⁻¹ | kon [5]: 280000 M⁻¹ s⁻¹
B4: Anti-C1s antibody 2-7 (antibody, human IgG1, kappa, V domains shown)
VH: EVKLEESGGGLVPPGGSMKLSCVASGFTFSNYFMNWVRQSPEKGLEWVAEIRLKFTNYATHYAESVEGRFTISRDDSKSSVYLQMNNLRAEDTGIYYCTRDYGSRNGYFDYWGQGTTLTVSS
VL: DIVMTQAAPSVPVTPGESVSISCRSSKSLLHSNGNTFLYWFLQRPGQSPQLLIYRMSNLASGVPDRFSGSGSGTAFTLRVSRVEAEDVGIYYCMQHLEYPYTFGGGTKLEIKT
notes: the HC/LC entries may hold it too; also called clone 2-7
